Measurements as given in a protein production outcome set (Wang et al. 2014).

Test: label from the status in PepcDB records
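Note: failed if final PepcDB status was selected cloned or expressed and not failed if soluble or beyond.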

Sequence	protein production
MNSELFQKLAKAQTDEERSWIVTESLLATLSPELAAAAWAAVVPHWFNAEILAALRPELQAQSSQLYTKLQALSFVEEFADRGHDVHDLTRNLMLKHLWQEHQDEFITLSQRAAEYFGRNNQQPETQIEWLYHLIVVDREWKGSEFWNLAQNWDNSFRVAELESLIAALLEQIAAERVETLAKAEVYYWAGKAKFRVYKAKEALERYEEALAFYRNIGVSEAPPVEARLGEANTLQAIGDVLQFLDRRTEALERYEEALAFYRDIGDRLGEANTLRAIGDVLQFLDRRTEALERYEEALAFYRDIGARLGEANTLQAIGDVLQFLKRSTEALERYEEALAFYRDIGDRLGEANTLRAIGDVLQFLDRRTEALERYEEALAFYRDIGARLGEANTLKAIGDVLQFLKRSTEALERYEEALAFYRDIGARLGEANTLRAIGDVLQFLDRRTEALERYEEALAFYRDIGDRLGEANTLRAIGDVLQFLKRSTEALERYEEALAFYRDIGDRLGEANTLRAIGDVLQFLKRSTEALERYEEALAFYRDIGDRLGEANTLQAIGILQDDLTVGLEYCQAALELYRQIGTKYSQSRNLIYFTSTILLKLERQTEAIDALNRAIELAKEIPYQYFVEDALAKLKKIQSSDSNI	failed
MSLRGSQLGTSRGLMLGGIDLAPVLMVLGLLLSGLGLSMLAPALVDLVVENRDWRAFLGSSVITLFCGMMLTLANWRMPLRFNIRQGFLMTALAWLTMSLFGSMPFMLATTGLDFAGAFFESVSGLTTTGATVISGLEHQPPGILFWRCLLHWIGGIGIIGMAIALLPALRVGGMQLFRTESSDTSEKGMNRIGELGLAITAVYLTLTVVIALGYIAVGMSVFDAICHAFGTVSTGGFSNWDTSLGHLDAAGLWMSTVGMMLGAMPFVLYVQVARGRPMDVVRDPQVQALTGFLVACWLVMALWQSLENGRPFLDALTASAFNITSVVTTTGYASEDYTLWGGFPQLFFFMITFAGGCTGSTSGGIKMFRYQVAYKVLSANIRRRYMPNAVIVSTYGGRAIDEDVAVSVVLFFFATGATTAIIALALTMVGLDWVTALTGTAAAIANVGPGLGTIVGPAGNYATLPDSAKWLLSLAMLMGRLEFFTLLVLFSRDFWKS	failed
TELQAVTGRAEIAGERLKLLYDAGLGIGTTLDVLRTADELAQVAVPRFADFVTVDLADAVLHGEEPAPTATDLRRTAVCGIRDDHPLYELGQLIDFLPSTPQARGYGSGYSELVTDLSTATGWHAQDPERTKAIIDYGIHSLIAAPIQARGVVLGMANFWRSKQHEPFVEEEMSLAEELVARAAVSIDNARRYTREHALAVTLQRSLLPRALP	failed
MKKEAESLIEKEHGTNPKISRYWIQRYDLFSKYDQGIEMDEEGWYSVTPEEIAIKQAERCRGKVVIDCFSGVGAIDIDPMKIALAMNNAKVYGVANRIDFVTGDFMQLAPSLKGDVLFLSPPWGGPTYSKVESYKLDMLLPRDGGVERVDSLTHESHNMTRSMKLKKRSRLKKEVKSTIEKDNGRRHKITKYWIQRYDLFSRYDQGIEMDEEGWYSVTPEEIAIKQAQRYRGKVVIDCFSGVGGNTIQFAKVCSSVVAIDIDPVKVELAMNNAMVYGVANRVDFVIGDFIQLAPSLKGDVVFLSPPWGGPMYRDFESYNLDMLQPRDGYSLFQIAQSITPNIIMFLPRNVDLAQVEELAWLSSPPLNLEIEENFVGGRMKAVTAYFSCNAV	not failed
MYINKFVPVYTLLILIYSFNASAEWTGDNTNAYYSDEVISELHVGQIDTSPYFCIKTVKANGSGTPVVACAVSKQSIWAPSFKELLDQARYFYSTGQSVRIHVQKNIWTYPLFVNTFSANALVGLSSCSATQCFGPK	failed
MKAVLFDLDGTLIDTAADFIRIIQEMCREEQREVVDADLIRTQVSEGARAMVKLVYPELAVDDAVFLTHRQRFLDRYEQNIVVDTDLFKGMYPLLEMLESQQIPWGIVTNKPRHLTELLLERLNLTERCAVLVCPEDVQRTKPDPEPMFLAATQLHIAPEQIIYVGDHPRDIDAGRAAHMYTILAAYGYLPLQHKDNLNAWQADVIVQHVTELQKILSQQLHITPLNQDTMLQTS	failed
GGVMHYTDKAALPADGEAREVAALFDTWNAALATGNPHKVADLYAPDGVLLPTVSNEVRASREQIENYFEMFLTKKPKGVINYRTVRLLDDDSAVDAGVYTFTLTDKNGKKSDVQARYTFVYEKRDGKWLIINHHSSAMPEVDTATATAAVTKAK	not failed
MVPHIDGLFLRDVEAVLTAPDRADLPVLNPGLGTWVDKTTVTWFKFNHQLAVTIGDILQRNFHHAWPTYRMIPVVFKASTLCMHTWDSRHTLTVWTQFNLVARTLYRDNMRAMKRRWARGLDKSRWMTTTVWNDLVDMFTEFGPDDVGFMS	failed
MSGRHLMYLDYLVPSWHEIESRVIAMVGYQSGGQFRTSLNEEVASLGLNLRRIEAVRTAFYHAEWQAAHMLRQRFADLDINSIIDELLRVVQQMAMIVVGSTITGGLLGATVGAFAGGAGTIPLAGAGAVMGLKVSGWILGALGLASIAEFFVEGLPRIGG	failed
MNFEYPDGATPLDSDEAEGLLLTHITSRGELDRWEQENIAEGEAWAFGRRQKNILSEAFIRRLHKRMFGHVWRWAGEFRRSDKNIGVTWWQVPIELRKLCDDVVAWIAFGTYPPDEIAVRFHHRLVAIHPFANGNGRHARTMTDLLLVQALQRPRFTWGSGNLVSVGDCRRYYIEALRAADRHDYQLLLEFVRMLEHHHHHH	failed
MSRQQNEEDTNSVLFDARNEYYIGNFMGSINFVLPEQGTAGPELLSYMYLSYLAIDSGRIVASDIKEGNSTPLQALRLVHEAFEQPSRTEELLEKLTDKVAGEEDETNIWHLATAIVYCHDGQFENALKILHGSTNLESMALSVQCLLRLQRVDLAKQLVAKMQEISDDATLTQLAQAWVALAQGTEQMQDAFHIYQEFCEKFKPTPALLNGQAVVHLGLERYEEADSVLRESLLKKHNDYDTLINLMVHAHLTGKPTEAITRNLEQLRQFYPKSDFVTDLDKKSAEFDRLCLQYDVEGGEKLLAV	failed
MSVSGPCLSCDTPGCTMQAHSDSDESFFERAWAVVAQIPVGRVTTYGDIAAHLGRRGAARIVGWALKDAVGGDLPCHRVVNRNGVLTGRRHFETPHVMAERLRSEGVTFVAEDQVDLDAHRWRPGEAE	failed
MDQKEAPSFTEASVHDPSVIKVEDTFYVFGSHLAAAKTEDLRNWTQIATHVHEGNPLIPNVFVELAEAFEWANSNTLWAADVIQLEDGRFYMYYNACQGDAPRSALGVAVADDIEGPYENLGVFLKSGMWGEESPDGTIYDANVHPNAIDPHVFFDEEGKLWMVYGSYSGGIFILEMDPDTGFPLPGQGYGTHLMGGNHSRIEAPYIHYDKETEYYYLYVTFGGLDSTGGYNMRVARSKQPDGPYVDGEGHLMSEVRGAPGTLFDDASIEPYGVKQMGNFLFKRELGERGTGYVSPGHNSVYYDDEVDKIFLFFHTRFPERGEAHEIRVHQMFMNRKGWPVIAPYRYTGESLEKVKAKEVIGDYQWINHGKEISAEIKESVTVRLEKNHKVLGDVTGKWKKVGDYHVELQIDGETYYGVFLRQWDPVAEREVMTFTALSEEGIAIWGSQLEEKTDNEIVDAVYDDLTLEGTIISDVELPTRGMRQTTIAWSSSHEEVLSSSGKVNRPEIGEDDVVVSLTATISKGSAERIKTFELVVPGQTEGGLVAHYPLNGTLENAVDDARFGSGTVTGNRIDNPGGTIAFEQGIDGEAAVFDGTTGIRLPNGLISRNTYTVSFWLNPEQLTEFTTAFFAARSEHHWLSFVPRGHSGMNHDTMLWAGSAQWYDAGTGVKLPVGEWSHVAFSVDNGEIVIYLNGEERFRGENFPNLFTTPNAYFALGVNHWDAPFQGMIDELRIYDGVALTREEIVHLAKQKLEHHHHHH	not failed
MVSLLLISLLYLGIMLIAAKISEEIFRRIGLVTFVGPILMGILLGNGVFGVIQINEIISFITSLGIVFLLFLAGAEEFNVENRPNANVFLAVILESIIPFSVILVAIYIIGFKNYLILIVPLAMSSAGPLSRMLMDVKISDNRISNLIFQQVILIEIIFVILFAILLKTSEILITIIEIFLVFAFTIMFGRTLAKILEKIEYYFKAREIEFASLIAIILIIGYLAELYKFNSAISAFFLGILLKDYLKDRPELLERLHAFTYGFFEPLFFLGIGLYVTKINASIILFSLLFFSLIIASKFLAGFISSKILNIKGKINGFATSVKGGVDSSLLLTGLTLGYINEFMYSFSILAISLSALIVPLLFQINFKISNKISESKKVKLSQEVIKLQIKPLYASCEENLRSVISKISERGVRGIVVVNYENKPLGYVSIQTLLEIDPELYESTKACEVPLDEVPIEYDNVKVIDLLRKFRETEKPVIAIINKEGVLVTTVYERELARFLISF	failed
